The DeepSol protein solubility set

test: soluble on expression in E. coli; label from the status in PepcDB or PDB records

Sequence | soluble on expression in E. coli
MQSAIVLGGGMIGVSAALHLRQRGWTVTLVDRREPGRETSYGNAGMIQAEAVRPYPMPRDLASLLKIATGRTNDVRYSLSSLHLHIEPLLRYWWHSAPKRHREAIDAWARLIAYATAEHDILIREAHADNLIRRAGYRALYRDAAALDLSIKAAEEDQHEFGVNFRVLSGSELAKAEPVLRDDLPGAIHWLDTWTVSDPGALVTAYAELFERLGGRIVLGDAQSLQQTAAGWSVDTDQGRIDAATAVVTLGPWSPDLLYKFGYRIPLVRKRGYHMHYSGGASLDLPLIDKAGGYAMGPMAKGIRITTGAELTSPDALATPVQLASAEASARELIDLGKRVEPDPWFGTRPCTPDMLPVLGPAPLHPGLWMNFGHGHQGFTLGPATGRLLAEMMSGETPAIDPTPYRPERFLEHHHHHH | soluble
MQSCLRLAASLLSAALLCLPAPGAAQTASPAKKELLKFNWGAPTADYYALYVAKDQKLFEEVGLEPNFYFFPSGAPLLAGLKSKSLDVITTGLATVFALGQNVPLKLIYWELDHAAAEGLVVDPAAGIKSYKDIAKAKAIGAPSGTCAQVSLVLMAKELNLKYSNLNIINIAPPLYGNAFKSKSIQAAVAWSPYSSILNADQLPVVNWASDYTPDQGVCPGLTGVRTEFMQQHPDIGLKLVQVQAKAMDMIRKDPELGIGVLMKYLSVSREVAKHIYDREFSRIPTYAQQIDPASPYSLAAKDAGLARKLLIASQALAEVGTIPAPLTPQAIAEAIDPSAIQRYMKGERK | not soluble
MQSPEKIDPTWEDSVIDSFISFVRSYDGDFTCIYKLADTVSDEYSLQKIIDFLSSTPQGKQAFQKRPQLGVVDLPKLHQLPTDTLGYVYADQMLQNNLQPLQSHEIDNDYQFFKTHITETHDLWHIVTGADTSILGEIQLEAFYVSQLYASRFWLALLAKNLLKAVIYDIELSTPYMDAISTGWVMAKQAKPLFGLEWNLLWEKPLADVRTSLNIILPVNLEHHHHHH | soluble
MQSSKVVLLEPRTYSEAQGIADHLKGRRAVVINLQRMSTDQAVRIVDFLSGTVYAIGGDIQKIGPKTFMCTPENVDIVGAISELFGEEEETNIKRWLEHHHHHH | not soluble
MQTSAQKVIQDLTNRVQAEKEELEQLERERDLWKYNAQMNDKEALRGNERKKNIMKKGGPLCYFCNKNHVPSLCRTYPDGISRQKSLENQGKCIKCLKIGHQNGDNFCEKHHIVCRTCQQSHVKAVCPILYPKKDTPPKILRARRRSLIRAQKKKDFQEPENKHEQLTSTKAPCQENWSDF | not soluble
MQTSDSIVIIPTYNERENIENIIRAVFGLEKTFHILIIEDGSPDGTAAIVKTLQQEFPDRLFMIERKGKLGLGTAYITGFKWALEHSYEYIFEMDADFSHNPNDLPRLYEACAVQGGDVAIGSRYVSGVNVVNWPMGRVLMSYFASKYVRIVTGLPIHDTTAGFKCYRRQVLETIDLDHIRFKGYAFQIEMKFTAYKCGFKIIEVPVIFINRELGTSKMNSSIFGEAVFGVIKLKVNSWFHTFPQKTKMNLEHHHHHH | not soluble
MQVIKTNETFDSLDKSKLERMLDIKEAHREGHLTLEEAKERMKKEVGSISPEEFAAAEQLFKERDQDECQNEDVRTMLQLFEGLINPIRPDLPFGHPIDAYLRENDKAKELLDQADALLERTFIPNPWIELMETLMGYKLHFARKQNQLYSTLEQKGFDRPSTTMWTYDDHIRDEMNKAMSLLREKDYDSFPAAYKEMAIVLRDLMEKEELILYPTSLKLISDKEFEEMKHGDREIGFFLIDMPELDAPAKQSKEAHGQSFMAELGALLAKHGMGTGGQDDKAILDVAEGKLTLEQINLLFRHLPVDISFVDENELVCFYTDTKHRVFPRSKGVIGREVRNCHPPKSVHIVEEIIDKFRRGEQDRAEFWINKPGVFIYIVYVAIRDADGRFRGVMEMMQDCTRIRSLEGSRTLLTWDEEQSPAQGSKESESDTAGEDGIRPDTKLKSLLQRYPQLMDDLPTISSKFTLLRSPMAKVILPVATIKMMSERADIPSDMLIGKLESLIASYNKPDRSEEK | not soluble
MQWVKQLNVVFCTMLFSFSSYANLSDFKVATWNLQGSSAVNESKWNINVRQLLSGEQGADILMVQEAGSLPSSAVRTSRVIQHGGTPIEEYTWNLGTRSRPNMVYIYYSRLDVGANRVNLAIVSRRQADEAFIVHSDSSVLQSRPAVGIRIGTDVFFTVHALATGGSDAVSLIRNIFTTFTSSPSSPERRGYSWMVVGDFNRAPVNLEAALRQEPAVSENTIIIAPTEPTHRSGNILDYAILHDAHLPRREQARERIGASLMLNQLRSQITSDHFPVSFVHDR | soluble
MQYINESATVSASNNVEKLRKQGLKIYNFGIGEPDFTTPEGIIDYAFEMAKQGKTHYTPSAGIMELREKIASKLKTRNRIDANAENVLVTPTKFGINLAMMVILNPGDEVIIPDPYYVSYPDIVKLAGGKPVPVRTTDDYDIDLDEMRKFVTPRTRAIILNNPNNPTGKVLSEKEIRDLVDFALENDIYIVSDEIYEDLIYEGSLYSPASMGKEAFEHTITLNGFSKGYAMTGWRIGYFVATEEIVEAANIIQQQTITCASSISQYAALRALDDNESPARMRSEFRKRRDLAYGILSESTDMKVHKPEGAFYMFPGYSKDIPSEKIAEMLLNQEHVVVTPGSAFGDRGRHHFRISFATSEDIIKEGLERLVKFMHTL | soluble
MQYTLKQISEHLNAKVINEPSGEVIITGLTYAEQAKENDLTLIDKQEHIKLWQNSKATAAIVSKKISKELAQVNDKPLIVVNNADLAMAKILELFSVPYPEQNGIHEKAIIDPTAKIGKNVSIGPSAYIGKNVEIGDNTIIYANVCIYNDAKVGTNCIIWPSVIIRDRTIIGHFCRLCSNCSIGSDGFGYRPSEDGRTIVRIPHIGNVVIGSFVDIGSNTCINNAKYGSTIIGDYTKIDNLVQIGHNVIIGKGCMICGQAGISGSVTIGDGVIIAGNAGIKDHTNIGSDARIGGKAGVMWDVPAGESHMGYPAYKDSELAKQWIAIRKLPETMKKLKAIAKSLNIDL | not soluble
MRARSDAGGQSVKSRTSNRSRSSRRSRVRSSISALVDNPQARPRELPVLCGWPVVRVEPVCEFVPEPVCGQAEVLGEPAAAHRVTSARRSPSTTVCSRSQKASAVVISSVSSVARVRRASVSSVDATTA | not soluble
MRATAIKIFSLSSALALLLHGCLSINLKQMLPEIRTYDLNASSFEITQCAKPLTEVRLISILSADLFNTKEIVFKAKDGQITHGKHQKWIDLPRNMLKTMFMQEAQKACLGVALPPYGAGAPTYAVRFTILSFSLLEKENSTYRAEFALGYDISVKGDSHSGVIIKHENISSLENKTTKTSKNGNQDFQESAIQSLQHVSVQAIQEAVSLIKKAIEAQSVSPLKK | not soluble
MRCPGCGAAIQFDDPKKPGYIPREVFEKRLEEGKEILCQRCFRMKHYGKLEPVEFDWDFKNQLKSYLGGFDVVVWVIDIFDFEGTYREDIAEILKGKRVIYVINKIDLLPRAVTVKEIKEWVKKRIKTKNTDDIRIVSAEKNFGLTSLVKYLSRLTDKALVVGVTNVGKSSLLNKICTHENTISPFPGTTLGILKRKVKEANLYLYDTPGIMTSDRILDLLDPECQKRVLPREELSRKTFKPDNGRTIFMGGLCRFDIHFETEKNPIFLLFSSKEVTFHETRRERADELMRNRLGDLLIPPCSKTKFENFKWKRETFTLKEGEELAVAGLGWMSVRRGPFTVEVTVPDSVKLVVREALVNPKRLEHHHHHH | soluble
MRCYAKIHSYQLLFVADVDYDCHHKDKFFRRHCVVAKILPRFDAVLFLDADTGVVNPSRKIEEFLKPGIDITFVNRFCNWEIASGFYLARNTPFAINLLNNFADYESKLPNSFHGTDNGAIHIFLAEKIFPQASIEIGICRRAYEKSTSVEDLILYEACIKALFGVVTDFGKIQILRKGTGWARDGWLTSMVWHPETDFMLHGWKTNALIPTPTDPLVAIEMSMSQWFNPLNGSIDLSKCNSHNSTWNYDARLLGNNEEIQKSLHRIQKENSILQVKAYSDFSKFISL | not soluble
MRDLKGIFSALLVSFNEDGTINEKGLRQIIRHNIDKMKVDGLYVGGSTGENFMLSTEEKKEIFRIAKDEAKDQIALIAQVGSVNLKEAVELGKYATELGYDCLSAVTPFYYKFSFPEIKHYYDTIIAETGSNMIVYSIPFLTGVNMGIEQFGELYKNPKVLGVKFTAGDFYLLERLKKAYPNHLIWAGFDEMMLPAASLGVDGAIGSTFNVNGVRARQIFELTKAGKLKEALEIQHVTNDLIEGILANGLYLTIKELLKLEGVDAGYCREPMTSKATAEQVAKAKDLKAKFLS | soluble
MRDNPLVSILIPTFNRPMLLEKSLRSAVNQTYKNIEIVICDDSTNYDSKTVVESYMKRYKNIRYYFNNGPLGNFGLNNVKKCYELSKGEYINYLNDDDMFHKSKIMRMIRYFQNYKKITLVTSHRSVIDKNDNILPDINATKRIRYLNRPVSGRIIAKLMFNLGNFIGEPTTVLFKKSDVKNFGSLNGKQYYSLIDAATWFELLSKGYCVYIADTLSYFRIHEGQNTNRPEVSGRFLLEWKDLNDYGYRKKIIDSEFYKRFLLSFKKEYEKPKLEHHHHHH | not soluble
MRDSIMQMCELCGKLTDKLYKVIIEGSEMNVCKECAKFGKSPKTYSRLGKKTIIGKGTITTNKQVKKPIKRRRDIFDTLPMLREDYGDVIREAREKRGLSIEELAKKLKMKASTLQKFERYELEPNEKEIKILEKELKISLTESIGEETSYYGGRDEDGFTLGDFIKIKK | not soluble
MRDTLVLNASFEPLSTVTLNRAVILVLQDKAVVEQAHPELRMRGAALDIPVPRVIRLCRYVRVPFRRQAPWSRRGVLVRDRHRCAYCGRRATTVDHVVPRAQGGQDSWLNTVASCAEDNHRKAARTPEQAGMPLLRQPFEPTPADAMLLALGQDDFESLPEWLAQPAALEHHHHHH | not soluble
MRDTRGGDQGGGLEAQGGAEARNALPPETIVLILPWEPGSRRQPLKAGQVILKWGGYTMPYLVGPKGQVVIAKEIRERLGIRPGWRVIQRLVDDHVELYFLPPPHKASLKGLLRDKIRGTVSEEAWAEARERAWRASWSEEGEG | soluble
MREFSRPKVVISRCLEFDHCRYNGDMISSPVVVKLKKHVDFLPVCPEVEIGLGVPRNPVRIVLDKGDHRLVQPSSGKDVTEDMKSFCSNFLDSIYEVDGFILKFRSPSCGLKDVKVYPSAGSHGGAVEKISGYFGGAVLGRYPFHPVEDEGRLRNARIKEHFLTKLFTFAAFRKVKSEGSIKDLINFHAQNKFLLMAYNQAELQKLGEIAANREKRPWKELISDYENHLYSALSRAPRYTSTINVLMHALGFFSDQLSSREKALFFDWVQKYREGRASVCPAINMIRSWIVRFEDGYLMSQTFFEPYPEDLIEINPVESHLREDLWK | not soluble
MREKIDALTQNLNRTIVGKTEAIRLVLVALIGGGHALLEDVPGVGKTLLAKSLARSLDGTFQRLQCTPDLLPTDITGTNIWNPKSGEFSFMPGPVFANVVLADEINRATPRTQSALLEVMEEQQVTVDGVSRTVPHPFFVIATQNPVEYQGTFPLPEAQMDRFMLSLSLGYPGVDEELEMLQNLQHGIKVGDLQPCLTLAEVAELRDICSQVKVETVLQQYILELVRATRQDEEITLGVSPRGTVALHKATQALAFLLGRDYAIPDDVKFLAPHVLCHRLIPRGGRSARSIVDRLLRSLPIPLEHHHHHH | soluble
MREQISVLTQNLSQTIVGKDEAIRLVLVALLSGGHALLEDVPGVGKTLLAKSLARSINGKFQRVQCTPDLLPTDITGTNIWNPSSREFEFLPGPAFANILLADEINRATPRTQAALLEVMEEKQVTVDGETRLVPHPFFVIATQNPIEYQGTFPLPEAQLDRFALSLSLGYPSEAEELKMLQRQQNPEAIAVGDLESCISLEEVEALQKAVRQVKLTEDLQQYLLRLVRASRTDEDVTLGVSPRGTTALQRATQAFAFLEERDYAIDDDVKFVAPHVLAHRLIPASGKDPKAILQRLLDSVPILEHHHHHH | not soluble
